Experimental data from patent publication US10143747B2, “Breast cancer therapeutics” (IMBA—INSTITUT FÜR MOLEKULARE BIOTECHNOLOGIE GMBH, priority 2010, dated 2018).

Key:
mammary epithelial cells = assay: γ-irradiation induced mammary epithelial cell apoptosis in vivo (active Caspase 3); design: species or system mouse; details: MPA pellet, 5 Gray
Method: (§1) a, Western blotting for phosphorylated (P) IKKα, total IKKα, phosphorylated (P) p65 NFκB, total p65 NFκB, phosphorylated (P) IκBα, and total IκBα in isolated primary mouse mammary gland epithelial cells (MECs) in response to RANKL stimulation (1 μg/ml). β-actin is shown as loading control. b, Western blotting for IKKα, IKKβ, IKKγ, phosphorylated (P) p65 NFκB, total p65 NFκB, phosphorylated (P) IκBα, and total IκBα in pooled late stage mammary adenocarconimas (n=4 for each lane) that developed in control, RANK^Δmam and IKKΔ^Δmam females. β-actin is shown as loading control c, Expression of RANK, CyclinD1, and p21 mRNA in late stage mammary adenocacinomas that developed in control, RANK^Δmam, and IKKα^Δmam females. Expression was determined by qRT-PCR. […] Apoptosis was detected by immunostaining for active Caspase 3. f, Apoptotic nuclei of epithelial cells (arrows) are shown for representative mammary gland sections. Magnifications×40. g, Quantification of mammary epithelial apoptosis. A minimum of 5000 nuclei was counted for each mouse. […]
For measurement of cell cycle arrest and apoptosis primary mouse mammary epithelial cells and SKBR3 human breast cancer cells were seeded at a cell-density of 100000 cells/well in a 6-well plate and allowed to grow for 24 hours. […] Cell cycle arrest and numbers of dead cells were determined using propidium iodine staining. […]

[1] = system: human SKBR3 breast cancer cells; assay: Soft-Agar Colony Formation Assay (anchorage-independent growth); format: cell-based; details: RANKL 1 μg/ml
Method: as §1, with “qRT-PCR. Data are mean values+/−sem. n=4 per group. d, Soft-Agar Colony Formation Assay. Growth of human SKBR3 breast cancer cells in soft agar in response to stimulation with RANKL (1 μg/ml) or EGF (100 ng/ml). Anchorage-independent, macroscopic colonies formed after 18 days in culture with RANKL, which was prevented by the decoy receptor OPG (1 μg/ml).” for “qRT-PCR.”

[2] = system: SKBR3 human breast cancer cells; assay: DNA damage responses (cell cycle arrest, apoptosis) in SKBR3 cells; format: cell-based; details: RANKL 1 μg/ml
Method: a, Western Blot analysis for γH2AX, phosphorylated (P) Chk1, total Chk1, p53 and β-actin in isolated primary mouse mammary gland epithelial cells in response to γ-irradiation (2 Gray) in the presence (1 μg/ml) or absence of RANKL stimulation. b,c, FACS analysis of propidium iodide (PI) stained b, mammary epithelial cells and c, SKBR3 human breast cancer cells after γ-irradiation (2 Gray) in the absence or presence (1 μg/ml) of RANKL. Data are representative of at least 3 experiments. Apoptotic cells with a DNA content <2n appear in the sub-G1 region. Percent of cells in sub-G1 (M1), G1-phase (M2), S/G2/M-phase (M3) as well as polyploid cells with a DNA content >4n are given for the indicated time points.
a,b, FACS analysis of a, mammary epithelial cells and b, SKBR3 human breast cancer cells incubated with the genotoxic agent doxorubicin (Dox, 1 μM) in the presence (1 μg/ml) or absence of RANKL. Data are representative of at least 3 experiments. Percent of cells in sub-G1 (M1), G1-phase (M2), S/G2/M-phase (M3) as well as polyploid cells with a DNA content >4n are given for 24 and 36 hours after doxorubicin treatment. c, mRNA expression of pro-apoptotic genes Bim, Puma, and Noxa 6 hours after γ-irradiation (2 Gray) in the presence (1 μg/ml) or absence of RANKL stimulation. Data are shown as fold change compared to control (+/−sem). n=3). *P<0.05; **P<0.005 (Student's t-test).
For measurement of cell cycle arrest and apoptosis primary mouse mammary epithelial cells and SKBR3 human breast cancer cells were seeded at a cell-density of 100000 cells/well in a 6-well plate and allowed to grow for 24 hours. Cells where then treated with doxorubicin (1 μM) or γ-irradiation (2 Gray) in the absence or presence of recombinant RANKL (1 μg/ml). Cell cycle arrest and numbers of dead cells were determined using propidium iodine staining. To determine in vivo mammary gland epithelial cell death, control and RANK^Δmam littermate females were γ-irradiated with a total dose of 5 Gray (Gy). Six hours later, mammary glands were isolated and immunostained for active Caspase 3 (Cell Signaling) indicative of apoptosis.

CC(=O)O[C@]1(C(C)=O)CC[C@H]2[C@@H]3C[C@H](C)C4=CC(=O)CC[C@]4(C)[C@H]3CC[C@@]21C [MPA, medroxyprogesterone acetate]
protective effect of MPA on γ-irradiation-induced cell death (mammary epithelial cells; RANKΔmam females): abrogated the protective effects of MPA | γ-irradiation-induced apoptosis of mammary epithelial cells in vivo (mammary epithelial cells; control females): protected from γ-irradiation-induced apoptosis

B1: RANKL: recombinant RANKL protein, ligand of RANK, used as stimulus (1 μg/ml or 1 μg i.p.) (protein, UniProt O35235 139-316, looked up)
Tumor necrosis factor ligand …: FSGAPAMMEGSWLDVAQRGKPEAQPFAHLTINAASIPSGSHKVTLSSWYHDRGWAKISNMTLSNGKLRVNQDGFYYLYANICFRHHETSGSVPTDYLQLMVYVVKTSIKIPSSHNLMKGGSTKNWSGNSEFHFYSINVGGFFKLRAGEEISIQVSNPSLLDPDQDATYFGAFKVQDID
growth of SKBR3 cells in soft agar [1]: induced growth of SKBR3 cells in soft agar | early cell cycle arrest after DNA damage ([2]; doxorubicin 1 μM): did not alter the early cell cycle arrest | protection from cell death ([2]; doxorubicin 1 μM): marked protection from cell death | early cell cycle arrest after DNA damage ([2]; γ-irradiation 2 Gray): did not alter the early cell cycle arrest | protection from cell death ([2]; γ-irradiation 2 Gray): marked protection from cell death
